Reference: article PMC8476842, “Uncovering and Engineering a Mini-Regulatory Network of the TetR-Family Regulator SACE_0303 for Yield Improvement of Erythromycin in Saccharopolyspora erythraea”

T1: SACE_0303 (TetR-family regulator) (Saccharopolyspora erythraea) (UniProt A4F6H8)
T1 sequence: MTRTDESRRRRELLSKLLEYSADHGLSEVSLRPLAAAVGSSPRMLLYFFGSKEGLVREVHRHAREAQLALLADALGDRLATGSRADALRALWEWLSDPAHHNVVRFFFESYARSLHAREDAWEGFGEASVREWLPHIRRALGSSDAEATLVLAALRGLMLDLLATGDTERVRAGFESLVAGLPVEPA

T2: SACE_0303 (TetR-family regulator) (Saccharopolyspora erythraea, UniProt A4F6H8 1-187)
T2 sequence: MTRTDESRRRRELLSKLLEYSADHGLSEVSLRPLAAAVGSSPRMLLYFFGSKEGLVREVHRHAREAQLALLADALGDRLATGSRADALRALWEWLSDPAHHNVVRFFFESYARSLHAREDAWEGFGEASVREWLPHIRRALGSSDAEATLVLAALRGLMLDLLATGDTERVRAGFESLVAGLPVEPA

B1: P0303-0304-56 bpM (dsDNA)
DNA 1: GGGTCATCCGGATATCGTAAAGCTTGGACTGGAATTCGAGGGCGCATGGGCGGCAT
DNA 2: ATGCCGCCCATGCGCCCTCGAATTCCAGTCCAAGCTTTACGATATCCGGATGACCC

What was measured:
[1] = biological target: T1, SACE_0303 (TetR-family regulator) (Saccharopolyspora erythraea); experiment: EMSA; details: EMSA: 10 mM Tris-HCl pH 7.5, 60 mM KCl, 50 mM EDTA (so in the source), 10 mM DTT, 5 mM MgCl2, 10% glycerol, 150 ng probe, 20 uL, 30 C 20 min; footprint at 20 C
[2] = biological target: T1, SACE_0303 (TetR-family regulator) (Saccharopolyspora erythraea); experiment: DNase I footprinting; details: EMSA: 10 mM Tris-HCl pH 7.5, 60 mM KCl, 50 mM EDTA (so in the source), 10 mM DTT, 5 mM MgCl2, 10% glycerol, 150 ng probe, 20 uL, 30 C 20 min; footprint at 20 C
[3] = biological target: T2, SACE_0303 (TetR-family regulator); experiment: EMSA; EMSA: 10 mM Tris-HCl pH 7.5, 60 mM KCl, 50 mM EDTA (so in the source), 10 mM DTT, 5 mM MgCl2, 10% glycerol, 150 ng probe, 20 uL, 30 C 20 min; footprint at 20 C; details: protein: recombinant; tags: His6 (pET28a, NdeI/HindIII); chain copies: 2; blunt

Molecule | binding [1] | binding [2] | binding result [3]
CGCTGGATCCTACCAACCGGCACGATTGTCCAGCCCACAACAGCATCGCGGTGCCACGTGTGGACCGCGTCGGTCAGATCCTCCCCGCACCTCTCGCCAGCCGTCAAGATCGACCGCGTGCACCTGCGATCGCCGATCAACCGCGACTAGCATCGGGCGCAAGCCGCCACTCGAACGGACACTCGC (double strand) [PermE] | no binding | – | –
CGACCTCGGCCGCCTGCTGTCCTGCCGGCGGGCGGCACGTGCCGCGGTCCGCTGAAACGGTTGCGAAAACGGGAAATCACCGCTGAGGGTGGCCGCCGCCGGCGGATTGCGCCGCCGAGATCGGCATGCCTAGGCTTCCACCACCGCTCCATCACGTGCGGGGTCCGGGTCCGGGAGCAGCCGATGCCGCAAGACGCGTGTACTTCCGCCCGGCAGAACACGTCCTCG (double strand) [P3156] | binds | – | –
GGCGACGGCGGCTTTCGTCGGTGCGGGTCATCCGGATATCGTACTGAAACGACTGTTTCAGGAGGGCGCATGGGCGGCATCGAGATCCGCACCGGCCCGC (double strand) [P0303-0304] | binds | binds | –
AGCTTTGACAGGTCCGCCACGCGTCCCCCTACTCGACGACCACGCAATGGGCGAACAATATAGGAAGGATCAAGAGGTTGACATCGCCTCGTCGAGCCAACGAACCTGTGAACATCTGCATGTTGACAAGATCAACGGCGGCTACCTACTGTGGTGGCCCAGTGACGGGTTGCCGCACATCGCGCTGGGGAGATTCTTTGAATTTCGCCCGTAGCACCGACCTGGAAAGCGAGCAAATGCTCCGGTGAATGGGATCAGTGATTC (double strand) [PeryAI] | no binding | – | –
B1 | – | – | no binding
